Laboratory results as given in PMC5487423.

Molecular target: P991_AMBCA, purified, C-terminal StrepII-8xHis tag (Amblyomma cajennense)
Experiment: BLI; Kd and koff determination: His-tagged evasin immobilised on Ni-NTA biosensor (OctetRed), chemokine dilutions from 300 nM to 0.4 nM, 30 °C, same buffer as the screen; reference protein subtracted; 1:1 model with global fit, or steady state; each experiment once

CCL13 (from UniProt Q99616 17-98) (ligand)
dissociation half-life: 2.72 h
